From patent US20230322924A1 (Janssen / Centocor, published 2023)
Where two headings read alike, the source gives them in different places.

Experiments:
[1] = biological target: T1, human PSMA on cells (LNCaP) (human, UniProt Q04609 1-750); assay: flow cytometry, mammalian Fab supernatant on LNCaP cells, anti-human kappa-RPE
T1 construct: whole, on cells; also called LNCaP cells
Description: (§1) Individual Fab clones were isolated from the round 3 output of all panning experiments following pIX excision. Fab clones were tested for binding to chimp and cyno PSMA expressing HEK cells, as well as to human PSMA on LNCaP cells. Briefly, PSMA expressing cells were aliquoted into a V-bottom plate (CoStar 3357) at a density of 200,000 per well and incubated with (100 μl) supernatants expressing Fab fragments for 1 hour on ice. Cells were washed twice with PBS containing 2% FBS, and stained with a mouse anti-human kappa-RPE antibody (Life Technologies cat #MH10514) for 1 hour on ice. Cells were washed twice with PBS containing 2% FBS and resuspended in […] of the same wash buffer. Plates were read on a BD FACS Array flow cytometer. FACS data was analyzed in FlowJo software by live gating the healthy population of cells using forward scatter and side scatter, and then analyzing the cells within this gate for PE staining. Mean fluorescence intensity (MFI) was calculated and exported into Microsoft Excel. […] Fabs were sequenced and moved forward for cloning into mammalian expression vector for rescreening. True positives were selected from the binding of mammalian cell expressed Fab supernatants to PSMA-expressing cell lines.
FIGS. 22A, 22B, 22C and 22D show the titration curves for anti-PSMA panning hits vs. LNCaP cells. […] Binding profiles among hits were compared across cell lines expressing different species of PSMA.

[2] = biological target: T2, chimpanzee PSMA on HEK cells (chimpanzee, UniProt H2Q3K5 1-750); assay: flow cytometry, mammalian Fab supernatant on chimp-PSMA HEK cells (PSMG9), anti-human kappa-RPE
T2 construct: also called chimp-PSMA HEK; PSMG9
T2 sequence (H2Q3K5 entry or part of it limits assumed): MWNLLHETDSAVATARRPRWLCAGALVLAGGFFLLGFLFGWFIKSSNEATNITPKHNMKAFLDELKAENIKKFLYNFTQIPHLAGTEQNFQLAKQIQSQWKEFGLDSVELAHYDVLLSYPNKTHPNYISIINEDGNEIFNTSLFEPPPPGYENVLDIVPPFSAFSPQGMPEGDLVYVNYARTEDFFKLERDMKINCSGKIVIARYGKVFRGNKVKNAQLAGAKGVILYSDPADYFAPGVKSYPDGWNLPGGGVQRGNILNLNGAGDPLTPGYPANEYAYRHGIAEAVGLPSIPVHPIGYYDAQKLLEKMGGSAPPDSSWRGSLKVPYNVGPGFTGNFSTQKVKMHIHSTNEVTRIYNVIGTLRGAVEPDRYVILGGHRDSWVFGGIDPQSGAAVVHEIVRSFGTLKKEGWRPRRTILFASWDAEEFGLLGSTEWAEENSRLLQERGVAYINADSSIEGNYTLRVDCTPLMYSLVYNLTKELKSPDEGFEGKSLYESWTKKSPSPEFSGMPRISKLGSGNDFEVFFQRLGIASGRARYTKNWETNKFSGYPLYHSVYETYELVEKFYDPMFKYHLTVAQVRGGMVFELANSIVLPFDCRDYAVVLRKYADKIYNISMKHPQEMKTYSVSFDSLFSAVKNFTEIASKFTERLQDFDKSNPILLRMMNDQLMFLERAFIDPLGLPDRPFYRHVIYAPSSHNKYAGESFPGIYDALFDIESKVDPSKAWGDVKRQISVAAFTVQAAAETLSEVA
Description: as §1
(§2) FIGS. 22A, 22B, 22C and 22D show the titration curves for anti-PSMA panning hits vs. LNCaP cells. […]

[3] = biological target: T3, cynomolgus monkey PSMA on HEK cells (cynomolgus); assay: flow cytometry, mammalian Fab supernatant on cyno-PSMA HEK cells (PSMG5), anti-human kappa-RPE
T3 construct: whole, on cells; also called Cyno-PSMA HEK; PSMG5
Excerpt: (§3) (Mammalian Fab Supernatant Titration Curves for Anti-PSMA Phage Panning Hits vs Cyno PSMA HEK). […] In FIG. 24D, Mammalian-expressed supernatants were normalized for Fab expression via octet, and titrated against either human LNCAP, PSMG5 (Cyno-PSMA HEK), or PSMG9 (chimp-PSMA HEK) cells using flow cytometry. Geometric mean fluorescence intensity (GeoMFI) was plotted vs. Fab concertation using GraphPad Prizm.
(§4) A cell-based binding assay was designed to assess the binding capabilities of individual Fab-his fusions from E. coli supernatants to PSMA-expressing cells. Individual Fab clones were isolated from the round 3 output of all panning experiments following pIX excision. Fab clones were tested for binding to chimp and cyno PSMA expressing HEK cells, as well as to human PSMA on LNCaP cells. Briefly, PSMA expressing cells were aliquoted into a V-bottom plate (CoStar 3357) at a density of 200,000 per well and incubated with (100 μl) supernatants expressing Fab fragments for 1 hour on ice. […] Plates were read on a BD FACS Array flow cytometer. FACS data was analyzed in FlowJo software by live gating the healthy population of cells using forward scatter and side scatter, and then analyzing the cells within this gate for PE staining. Mean fluorescence intensity (MFI) was calculated and exported into Microsoft Excel. […]

[4] = biological target: T3, cynomolgus monkey PSMA on HEK cells; assay: as above; remark: listed apart in the source
Excerpt: as §3, §4

[5] = biological target: T2, chimpanzee PSMA on HEK cells; assay: flow cytometry, mammalian Fab supernatant on chimp-PSMA HEK cells (PSMG9), anti-human kappa-RPE; remark: listed apart in the source
Description: as §1, §2

[6] = biological target: T4, Rh-integrin a4b7 (UniProt P13612 34-977; P26010 20-723, limits assumed); assay: Biacore 8K SPR, antibody over immobilised protein
T4 construct: rh read as recombinant human
Description: (§5) Non-specific binding of the lead molecule to unrelated surfaces is determined by biosensor technology (Biacore 8K). Antibody is passed over SPR surfaces coated with unrelated proteins. […] Irrelevant surfaces include negatively charged protein (Soy Trypsin Inhibitor), positively charged protein (Lysozyme and β-defensin), hydrophobic (Rh-integrin a4b7), human IgG, sticky protein (Rh-CD19). Proper controls are used in this experiment. Lead is flown over two surfaces, one is a blank and the other has a molecule directly immobilized. The response unit (RU) level is determined by subtracting the blank RU from the test surface RU. […] A response unit ≥100 predicts high risks for non-specific binding to charged/hydrophobic/IgG surfaces which would create challenges during manufacturing and translate to poor PK properties.

[7] = biological target: T5, Rh-CD19 (UniProt P15391 20-291, limits assumed); assay: Biacore 8K SPR, antibody over immobilised protein
T5 construct: rh read as recombinant human
T5 sequence (looked up): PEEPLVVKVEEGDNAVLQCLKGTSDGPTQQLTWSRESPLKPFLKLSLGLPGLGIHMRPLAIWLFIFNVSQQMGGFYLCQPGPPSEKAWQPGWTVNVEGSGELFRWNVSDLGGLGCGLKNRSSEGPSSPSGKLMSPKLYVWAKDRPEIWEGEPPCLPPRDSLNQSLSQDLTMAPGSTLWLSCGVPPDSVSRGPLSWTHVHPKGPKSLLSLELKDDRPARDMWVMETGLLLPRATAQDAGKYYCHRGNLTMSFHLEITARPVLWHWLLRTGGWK
Description: as §5

[8] = biological target: T6, human CD3 on human T cells (human, UniProt P07766 23-207); assay: competition with AF488 SP-34 tracer on human pan T cells, flow cytometry
T6 construct: Native TCR-CD3 complex on cells; also called primary human T cells; human pan T cells
T6 sequence (P07766 23-207 limits assumed): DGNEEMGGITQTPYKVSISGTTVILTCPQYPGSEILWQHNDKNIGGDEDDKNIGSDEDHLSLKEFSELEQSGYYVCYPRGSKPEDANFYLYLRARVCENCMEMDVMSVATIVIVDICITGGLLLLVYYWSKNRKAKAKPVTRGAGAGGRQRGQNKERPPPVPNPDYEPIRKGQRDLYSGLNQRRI
Description: (§6) The mixture was added to the T cells for 2 hours at 4° C. Cells were then washed to remove un-bound antibody, fixed for 15 minutes, washed, and re-suspended in FACS Staining buffer containing 1 mM EDTA.
(§7) The iQue Intellicyte Flow Cytometer was used to measure binding. Cells were gated for T-cell population, followed by cell singlets, followed by Live Cells (FL4). Geometric mean of staining (FL1) was determined for each well. The acquired mean fluorescence intensity values were plotted as a function of the log antibody molecule concentration (converted to nM) and analyzed using Prism software in a sigmoidal dose-response (variable slope) from which the EC50/IC50 values (in nM) are derived. The binding affinity (Kd) was derived using the following formula: Kd=IC50/(1+([T]/KdT)).

[9] = biological target: T6, human CD3 on human T cells; assay: Kd = IC50/(1+[T]/KdT) from competition with AF488 SP-34 on human pan T cells
Description: as §6, §7

[10] = biological target: T7, Human CD33-C2-HSA (human); assay: SPRi off-rate screen (IBIS MX96)
T7 construct: C2 domain of human CD33 fused to HSA; also called C33W4; huCD33-C2-HSA

[11] = biological target: T8, Human CD33 ECD-HSA (human); assay: SPRi off-rate screen (IBIS MX96)
T8 construct: CD33 ECD fused at the C-terminus to monomeric HSA (C58S) and a six-histidine tag; also called C33W2; huCD33 ECD-HSA

T1 sequence (Q04609 whole entry): as the sequence (H2Q3K5 entry or part of it limits assumed) above, with L155S, H281R, Y475H, N613S, T647S, L660V, D727E, S733Y counted along it

B1: PSMM18 (Fab, V domains shown)
VH: EVQLVQSGAEVKKPGESLKISCKGSGYSFTSYWIGWVRQMPGKGLEWMGIIYPGDSDTRYSPSFQGQVTISADKSISTAYLQWSSLKASDTAMYYCARAYHYSKGLDYWGQGTLVTVSS
VL: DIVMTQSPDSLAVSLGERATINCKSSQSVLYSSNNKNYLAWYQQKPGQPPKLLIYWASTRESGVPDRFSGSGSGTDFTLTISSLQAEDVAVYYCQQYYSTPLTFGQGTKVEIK
notes: Mammalian Fab supernatant; also called PSMB18
binding result [1]: binds | EC50 (read off the curve) [2]: ~0.3 µg/mL

B2: PSMM52 (Fab, V domains shown)
VH: QVQLVQSGAEVKKPGSSVKVSCKASGGTFSSYAISWVRQAPGQGLEWMGWIIPYNGNANYAQKFQGRVTITADESTSTAYMELSSLRSEDTAVYYCARVNSAALVWERLDYWGQGTLVTVSS
VL: DIQMTQSPSSLSASVGDRVTITCRASQSIDRWLNWYQQKPGKAPKLLIYAASSLQSGVPSRFSGSGSGTDFTLTISSLQPEDFATYYCQQSPRYPLTFGQGTKVEIK
notes: Mammalian Fab supernatant; also called PSMB51
EC50 (read off the curve) [3]: ~0.2 µg/mL | EC50 (read off the curve) [1]: ~0.3 µg/mL | EC50 (read off the curve) [4]: ~0.2 µg/mL | EC50 (read off the curve) [5]: ~0.2 µg/mL | EC50 (read off the curve) [2]: ~0.2 µg/mL

B3: PSMM87 (Fab, V domains shown)
VH: QVQLVQSGAEVKKPGSSVKVSCKASGGTFKSYDISWVRQAPGQGLEWMGGIIPIEGTANYAQKFQGRVTITADESTSTAYMELSSLRSEDTAVYYCARDYPAGYGFDYWGQGTLVTVSS
VL: not shown
notes: Mammalian Fab supernatant; also called PSMB86
EC50 (read off the curve) [1]: ~0.2 µg/mL | EC50 (read off the curve) [5]: ~0.4 µg/mL

B4: PSMM59 (Fab, V domains shown)
VH: EVQLVQSGAEVKKPGESLKISCKGSGYSFTSYWISWVRQMPGKGLEWMGIIYPGDSYTRYSPSFQGQVTISADKSISTAYLQWSSLKASDTAMYYCARDYEWELFDSRLDYWGQGTLVTVSS
VL: not shown
notes: Mammalian Fab supernatant; also called PSMB58
EC50 (read off the curve) [4]: ~0.2 µg/mL

B5: PSMM85 (Fab, V domains shown)
VH: EVQLLESGGGLVQPGGSLRLSCAASGFTFDSDWMSWVRQAPGKGLEWVSAISGNGGSTEYADSVKGRFTISRDNSKNTLYLQMNSLRAEDTAVYYCARDPYYYYDGDSYYGMDVWGQGTLVTVSS
VL: not shown
notes: Mammalian Fab supernatant; also called PSMB84
EC50 (read off the curve) [3]: ~0.4 µg/mL

B6: CD3B376 (antibody, human IgG4 S228P, lambda, F234A L235A, V domains shown)
VH: QVQLQQSGPRLVRPSQTLSLTCAISGDSVFNNNAAWSWIRQSPSRGLEWLGRTYYRSKWLYDYAVSVKSRITVNPDTSRNQFTLQLNSVTPEDTALYYCARGYSSSFDYWGQGTLVTVSS
VL: QSALTQPASVSGSPGQSITISCTGTSSNIGTYKFVSWYQQHPDKAPKVLLYEVSKRPSGVSSRFSGSKSGNTASLTISGLQAEDQADYHCVSYAGSGTLLFGGGTKLTVLG
notes: IgG4 PAA (S228P, F234A, L235A); LC is CD3L124 with C91V; also called CD3H219/CD3L150; bivalent CD3B376
binding result [6]: no binding (tested: response unit ≥100 predicts high risks) | binding result [7]: no binding (tested: response unit ≥100 predicts high risks) | IC50 [8]: 29 nM | Kd [9]: 7.3 nM

B7: CD3B450 (antibody, human IgG4 S228P, lambda, F234A L235A, V domains shown)
VH: QVQLQQSGPGLVKPSQTLSLTCAISGDSVFNNNAAWSWIRQSPSRGLEWLGRTYYRSKWLYDYAVSVKSRITINPDTSKNQFSLQLNSVTPEDTAVYYCARGYSSSFDYWGQGTLVTVSS
VL: QSALTQPASVSGSPGQSITISCTGTSSNIGTYKFVSWYQQHPGKAPKVMIYEVSKRPSGVSNRFSGSKSGNTASLTISGLQAEDEADYYCVSYAGSGTLLFGGGTKLTVLG
notes: IgG4 PAA; also called CD3H231/CD3L197; bivalent CD3B450
IC50 [8]: 60 nM | Kd [9]: 15 nM

B8: C33B778 (antibody, IgG4, V domains shown)
VH: QVQLVESGGGVVQPGRSLRLSCVASGFTFSSYGMHWVRQAPGKGLEWVAVISYDGSNKYYADSVKGRFTISRDNSKNTLYLQMNSLRAEGTAVYYCAKDFRSFDWLPPDSASYHGMDVWGQGTTVTVSS
VL: SYELTQPPSVSVSPGQTASITCSGDKLGDKYACWYQQKPGQSPVLVIYQDGKRPSGIPERFSGSNFGNKATLTISGTQAMDEADYYCQAWDRNTVVFGGGTKLTVL
notes: also called C33H66/C33L60; C33F78
koff [10]: 0.00257 s⁻¹ | koff [11]: 4.72e-05 s⁻¹
